Measured values: IntAct's records for PubMed 22643122

B1: Mitogen-activated protein kinase 4 (Arabidopsis thaliana (Mouse-ear cress)), Q39024 (parent)
chain: MSAESCFGSSGDQSSSKGVATHGGSYVQYNVYGNLFEVSRKYVPPLRPIGRGAYGIVCAATNSETGEEVAIKKIGNAFDNIIDAKRTLREIKLLKHMDHENVIAVKDIIKPPQRENFNDVYIVYELMDTDLHQIIRSNQPLTDDHCRFFLYQLLRGLKYVHSANVLHRDLKPSNLLLNANCDLKLGDFGLARTKSETDFMTEYVVTRWYRAPELLLNCSEYTAAIDIWSVGCILGETMTREPLFPGKDYVHQLRLITELIGSPDDSSLGFLRSDNARRYVRQLPQYPRQNFAARFPNMSAGAVDLLEKMLVFDPSRRITVDEALCHPYLAPLHDINEEPVCVRPFNFDFEQPTLTEENIKELIYRETVKFNPQDSV
partner: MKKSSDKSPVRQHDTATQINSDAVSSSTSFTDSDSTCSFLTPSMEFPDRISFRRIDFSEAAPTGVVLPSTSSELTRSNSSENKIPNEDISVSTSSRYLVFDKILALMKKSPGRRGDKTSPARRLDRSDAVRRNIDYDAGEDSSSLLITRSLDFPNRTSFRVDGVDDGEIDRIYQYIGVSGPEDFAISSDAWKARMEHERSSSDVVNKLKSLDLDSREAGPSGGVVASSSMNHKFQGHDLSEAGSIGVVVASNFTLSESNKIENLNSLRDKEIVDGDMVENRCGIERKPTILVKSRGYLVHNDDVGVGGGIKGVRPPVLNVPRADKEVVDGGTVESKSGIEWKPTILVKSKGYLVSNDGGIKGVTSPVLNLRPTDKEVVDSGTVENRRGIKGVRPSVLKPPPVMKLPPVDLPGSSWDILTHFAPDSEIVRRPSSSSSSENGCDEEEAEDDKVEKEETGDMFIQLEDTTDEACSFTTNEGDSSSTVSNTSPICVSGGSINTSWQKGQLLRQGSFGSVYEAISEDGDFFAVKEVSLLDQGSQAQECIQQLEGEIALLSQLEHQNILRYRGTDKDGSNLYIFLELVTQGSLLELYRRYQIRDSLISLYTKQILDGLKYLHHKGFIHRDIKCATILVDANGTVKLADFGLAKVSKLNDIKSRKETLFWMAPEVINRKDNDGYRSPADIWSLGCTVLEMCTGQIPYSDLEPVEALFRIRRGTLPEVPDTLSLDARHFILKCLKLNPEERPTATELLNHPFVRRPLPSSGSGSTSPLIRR

Variants of: B1
Conditions: with mp3k2_arath MEKK2, O81472

effect of a mutation on the interaction | Variant
disrupting interaction | MSAESCFGSSGDQSSSKGVATHGGSYVQYNVYGNLFEVSRKYVPPLRPIGRGAYGIVCAATNSETGEEVAIKKIGNAFDNIIDAKRTLREIKLLKHMDHENVIAVKDIIKPPQRENFNDVYIVYELMDTDLHQIIRSNQPLTDDHCRFFLYQLLRGLKYVHSANVLHRDLKPSNLLLNANCDLKLEDFGLARTKSETDFMTEYVVTRWYRAPELLLNCSEYTAAIDIWSVGCILGETMTREPLFPGKDYVHQLRLITELIGSPDDSSLGFLRSDNARRYVRQLPQYPRQNFAARFPNMSAGAVDLLEKMLVFDPSRRITVDEALCHPYLAPLHDINEEPVCVRPFNFDFEQPTLTEENIKELIYRETVKFNPQDSV [G186E]
